Results taken from US12077763B2, “RNA-based control of powdery mildew” (Greenlight Biosciences, Inc., priority 2021, dated 2024).

B1: GS1834: dsRNA trigger SEQ ID NO 189; gene target Tubulin beta-2 chain (nucleic acid)
DNA: CTCGTCCATTCCTTCTCCAGTATACCAATGTAAGAAAGCTTTTCTTCTAAACATAGCTGTGAATTGATCCCCAACGCGCTTAAAGAGTTCTTGAATGGAAGTGGAGTTTCCTACAAATGTAGATGACATCTTAAGACCACGAGGTGGAATAGAGCAGAGTGCGGTTTGTACATTATTAGGGATCCACTCGACAAAATATGCAGAGTTCTTATTTTGTACATTGCGCATTTGGTCCTCTACTTCTTTCATTGATACCTTACCTCGAAATATTGCTGAACATGTTAAATAGCGCCCGTTTCGGAAATCAGACGCTGCCATCATATTTTTGGGGTCGTACATTTGCTGAGTCAACTCGGGAACAGTAACTGCGCGGAAAGAGTGGGCACCGCGACTTGTTAGAGGAGCAAATCCAACCATAAAAAAATGAAGACGAGGAAATGGAACCATGTTAACTGCTAACTTTCGAAGATCTGAGTTGAGTTGACCTGGGAAACGAAGACATGTTGTTACACCTGACATGACTGCAGATACCAAATGATTCAAATCACCATATGATGGGTTTGAAAGCTTTAAAGTTCTCATACATATTT
B2: GS1835: dsRNA trigger SEQ ID NO 159; gene target Probable glutamine--fructose-6-phosphate aminotransferase [isomerizing] (nucleic acid)
DNA: CCGATGACAAGGGGAGATCCTTTTCTTGCCGCAATTACTTCATGGGGATAATGGACTGATTTTAGTAGAAGTCCAAATGCTCCTTGCAGCTCCTTGATGACGGCCTTAGCTAAGTCCGTAAAAGTAATTGTTGGGTGCTGGTCATATATATACTTAGCAAGCTTGGCAATACACTCAGTATCAGTCTCTGTCTCAAATTTATGGCCCTTTGAGATAAGTAGGGTTTTGAGCTCTTTATAGTTTATTATGATTCCATTATGAACAACACTGAACTGCCATTTGGGGTCACTACGATGAGGATGGCAATTCAATCTTGATGGAGGGCCATGGGTGGCCCATCTAGTATGTGCAATACCAGCATGGGAGTCAAAAACTTTGGAGTTATCTAGTTGCGACTCCTGGACAAGTTGCTTTAATTTTGCAACCTTTCCAACTTCTTTGAACGCAAAAACTTCATCTTTTTCATCCCCGTCAATTGCGAGCCCGGCACTGTCGTAGCCACGGTATTCCAAGCGAGAGAGACCGTTGACAAGTGTTTCAAGAATGTGTTTGCGATCCTTTTCAATGAGATAATTAATATAGCCAAAGAT
B3: GS1827: dsRNA trigger SEQ ID NO 195; gene target Ubiquitin-like modifier-activating enzyme 1 (nucleic acid)
DNA: AAAGTTATCGCCGAAGTCGCAGAATATATATCCAAATAATCCAAAGGTTTCAGTTATTACTACATATATTCCCTTCTCATGTAGATACTGGGAGATTATGAGCTGGTCTTTCAGTGGAATATCTGTCAATATTACAGCTTGATATGAATCAAACTGGGAGAGATCAGAAACTAAGCTTGTGGAGCTGTGAATCTTAACAGGGGTGTAAGCATTTAGTTCCGAAACTCGTTGAGCTGAGACAATATCTCTAGGTTTTCCTATATCTTCTGGGTTAAGAAAGAATTGAGATGATAGGTCAGCGATAGTTGCGGGAGCGGGATCGTATAATGTTAGACTTTTAACTCCAGCCAGAGCTATATTCTTAGCTATTTCGATACCAAGACCTTTCAAGCCAATAATAAGAATATTCGATGCACTCATTCGTTTCATAGCCTCGTGTCCAAGAACGTAGAGTTGCCTACTGTATAAAGACTCATCGATAACATTATTATTTTCTTGTGACTCATCAACTTCCATCTTCATCTTGTCTTCAATTTTACTGACTTCACTCATCTTGAATACTTCCTGTAAATCCAATTTACATCAACTGAATTA
B4: GS1833: dsRNA trigger SEQ ID NO 151; gene target Eukaryotic translation Initiation factor 3 subunit G (nucleic acid)
DNA: ACCTCACTAGGGCCTTCAGTAGTTTCATTAATACTAGTTAAAGCATCTCCGCTGTTTTCTTCACCAATTGGAGCCATTGTATCTTTAAAGGGACATCGGGCTGTAAAATGCTCTCCATTACATATACGACATTTAACTTTCTTATCTTTTAATTTGTCTTTCATTATTCCTGCCTCTGTTTTTTCATCTTTGGCATCTTTTTTCCAGTTGGCACTCGGTCTGAAAGTTATATTTTCACCAATAGATGTGGTTGAGCTATCTGGTCCGGGTTGATCTTTAGCAGAGAGTCCAAATTTACTCCACTGCTTTCTCTCGGCAACTCTAGGATTTACAATTTCTTTGTGTGTAGTGAAACGAATTCGTCTGGTATATTTGATCTTTTTTCCATCTTCATCGATTCGATAACTTACGATAGTTTGAGAGCCATCTTTATTAGTTGTTGTAGTTGTAGGAGGAAGTTGTTCTTCAATCCGGTCAACGGAAAGATCTTCATCGTCGGCCCAGTCAGCGCGAACAGATTGTTTAGACATTTTTCAAAATATTTTAATTAAATACTTGCAAATGGAAAGCTTGTAAATTCAAGCAAGTAT
B5: GS1831: dsRNA trigger SEQ ID NO 115; gene target glycosyl_partial (nucleic acid)
DNA: CTGAATTGTTTTGAGACTGTTTATTACGAAACCCATTACTTTTGTCTTTGATATGGAATCTCCGATTGACAAACAATGTTTCGTCAGGTTTTGGTTCATAGCTAGTGGTCATTCCAATGGCACCTCTAATGTTATTAATAACAGTATTGAGTGATTGCTCAGGCATTAAACAAGCTGGGCGACATTCGGGTATATTTGAAACAGATTGTAAAATTTTGTCACGAAGGGTTGTTTCGTCTTGAAAATTTGGTCGCAAGCATAACTGGAGATTACGAAGTTGTTTTACTAATATTTCAAATACATCAAGCAATGGCTTTTCAGAATGTTGACTAGAAAGAAGTTGCAAGGTAATTTTGTTCCATTCATTCTGTGCATTTCTCTGTTTTTGTGGTCCTTCAAATTGGCCAAGCATTAATTGAGAGATTTCATCGATCTGTATTGCATTGCTACAGCGATGATGGTAGAAGTCTAATGCTTCTTTGTTAAACATTAAGAACATAGAAGACAGGATGTCTTTTTCATTTTCGATGCTCGCTAATTCGCATTTTTTCAAAAAGATGTTTAACTTGAAGTTATAGCTATCATCTTTT
B6: GS1826: dsRNA trigger SEQ ID NO 180; gene target Adenosylhomocysteinase (nucleic acid)
DNA: CGCGAGTAAGATTATATGACGACCATTCTTCATTAGAAAACGATCGACTTGGGGCTTAATATTTTGAACGCTTTGTGCATTAGCTTTAAGCCATGCGACATCTATTTCAATGTCAAAGTGTCCAATATTGCAAACAATAGCATCGTTAGGCATAACTTCAAAATGTTTTCCTACTAAAATGTCACGGCATCCTGTAGTAGTTACGAAGATCTGAGCTTGACTTGCGGCCTTTTCCATTGTGGTGACTTGGAAGCCAGAAACTGCAGCTTGTAAAGCATTTATAGGGTCAACCTCAGTAATTAGTACACGTGCACCCATACCCTGAAGAGCTAATGCACACCCTTTTCCAACATCACCAAAACCAGCAACAACGGCAATTTTTCCAGCAATCATAACATCGGTGGCTCGTTTAATACCATCGATCAAAGACTCGCGGCAGCCATAGAGATTGTCAAACTTAGACTTTGTGACAGAATCATTGACGTTAACCGCAGGCACGAGCAAAGTATTGTTTTTTAACATTTTATATAAATGGTGAACTCCAGTAGTGGTTTCCTCAGATACACCAAAGCAACCTTTTAACATTTCTGGATA
B7: GS1836: dsRNA trigger SEQ ID NO 121; gene target Integral membrane protein/Pth11 homolog (nucleic acid)
DNA: GCTTTTCAATGTCGACCTGCAAACTACCTTTGGCAACAACTTGATTCAAAATTATATTCTGGAAGCTGTTTGAGCAAGGAGAGTATAGCCGATATTATATATGCTCATGCATCTATAAGTTGTTTAATTGACTGGATCTTTGGGATATTACCGATTTTAATTCTCTGGAAACTCGACATGAAGTTCAAGACCAAGCTCTCTATAATGATCGTTCTTTCATTAAGTATAGTAGCCTCTATAGCTACTGTTATACGTATTATTTACCTCCATATTCTTAAGAATGTGTCACAATCCGGTTGGGATGGTTTTGGATTAATAAAATGGTCTTTACTAGAACCAGCCATTGCCTTGACAGCTGCAAATATTGCAACTCTCAGGCCACTTACGCAAAAGTTATTTTCAAAAAAACGACGACCATCTAAATCACAACCACCTAAGCTTTCTCTCAATGCTATTCGGGGCTTAAGTCGGAAGTCTTCAGTATGTTGTTCAAGTGAATTTGCAGATATGTTAGGGCTAGCAGTATCACCTGGCGTGAAAACTCGAGTCTATGCTGATAGAAGACTTGATAACACTATCCAAAAAAGA
B8: GS1830: dsRNA trigger SEQ ID NO 178; gene target Regulator of nonsense transcripts 1 homolog (nucleic acid)
DNA: CCGAGTTAAAGCTACATTTAAACGTCTTGGGTCACTTAAGAACCCAATTCCTTGATGGTCATTTGATCGAACACATGATAAAACAATGAAGTCTTTTTCACGCCCTTGAAAAGCATCGACTGAAGCAACTTCAATTTCCCTGTAGTTTTCTTTTTTAAAAGTACCAGTGTTTTGCATAGAGCTTACAACGTAACTTCGCTGACCTTCGTAAGGTGTAATAACTCCAATATCGGCAGGCTGAACACCTGCTTTGAAAAATCGGGTTACTATTTTTTCAACATTAGAAGCCTCTGTGCGATTAAGATATGATGTTCCTGAAGCAGAAATCTCTTCATTTCCGAGATTAGACCAAAACATCATCGGTGTATCTCCAACTGGCCAAGGAAAGTCAACTTCATCTCTAAGCCGCTCTTGCATCGTCACACCATTCTGGAGAGTTCCTTCATAGAACATATTTGACGGAAACTCTGATAGGCATGGATGCATACGATACTGGATATTGAGTCGAATAGGGTGCATTTCCAACATGACTAGACGTTCAAAAAGTGACTGATTTAAACCTGCTTTGGCAGCTTTTTTATTCATAATAAC

Test system: E. necator
Assay: Leaf disc assay, dry inoculum (settling tower), decrease in disease severity / hyphal growth (Example 2)
Conditions: decrease in disease severity (hyphal growth) relative to untreated control, value ± SE; for % decrease =/− SE TP1: time point 1 (untreated control hyphal growth ≥50%); for % decrease =/− SE TP2: time point 2

Row | Molecule | % decrease =/− SE TP1 [%] | % decrease =/− SE TP2 [%]
1 | B1 | 8 ± 4 | 15 ± 6
2 | B2 | 25 ± 6 | 24 ± 6
3 | B3 | 45 ± 2 | 40 ± 4
4 | B4 | 12 ± 5 | 7 ± 5
5 | B5 | 34 ± 6 | 19 ± 6
6 | B6 | 19 ± 6 | 6 ± 5
7 | B7 | 23 ± 6 | 22 ± 6
8 | B8 | 36 ± 4 | 24 ± 5
